Assay [1] addresses Purified Mor1 (Example 9) (Mus musculus (Mouse)) (UniProt P42866). Kind of assay: method not told at that place (Ki; presumably radioligand displacement).
For assay [2] the target is unchanged. As to the kind of experiment: cell-based or functional assay.

Purified Mor1 (Example 9) (Mus musculus (Mouse)), sequence (P42866 52-358, tags or fused parts left off): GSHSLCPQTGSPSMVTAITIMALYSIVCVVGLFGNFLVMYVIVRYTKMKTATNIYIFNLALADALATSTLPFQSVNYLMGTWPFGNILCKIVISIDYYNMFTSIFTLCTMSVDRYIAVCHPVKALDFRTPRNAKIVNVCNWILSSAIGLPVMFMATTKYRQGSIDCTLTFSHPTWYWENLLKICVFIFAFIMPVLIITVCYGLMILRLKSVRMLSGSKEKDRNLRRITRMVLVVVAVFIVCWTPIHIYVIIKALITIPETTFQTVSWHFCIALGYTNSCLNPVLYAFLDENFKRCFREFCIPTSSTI

B1: XA8635 (VHH)
VHH: QVQLVESGGGLVQAGGSLRLSCAASGSISSISTMGWYRQAPGNERELVAAITSGGSTNYADSVKGRFTISRDNAKNTVYLQMNSLKPEDTAVYYCNFKYYSGSYFYKSEYDYWGQGTQVTVSS
B1: the Ki in assay [1] turned out to be 12 nM.

B2: XA8639 (VHH)
VHH: QVQLVESGGGLVRPGGSLRLSCVDSERTSYPMGWFRRAPGKEREFVASITWSGIDPTYADSVADRFTTSRDVANNTLYLQMNSLKHEDTAVYYCAARAPVGQSSSPYDYDYWGQGTQVTVSS
Take B2: in assay [2], the enhancement of BU72 affinity for Mor1 in HDL particles amounted to 176 fold and the inhibition constant (Ki) of agonist BU72 in [3H]-diprenorphine competition on Mor1 in HDL particles, in presence of 5 µM XA8639 turned out to be 0.0085 nM.

Broadly, the Ki is the dissociation constant of the complex between target and ligand, obtained from inhibition or displacement. A high value points to a looser hold on the target.

Values taken from patent US20170183404A1.
